# ± gives the standard deviation of the averaged measurements.
# Tested on: ATP
# Test: switch fluorescence ratio, 500 uM ATP over buffer (Cy3 cluster intensity, sum of 5 cycles each) (fold (ratio)); higher = stronger signal-on switching upon ATP binding; sequences stand for … in TCGTCGGCAGCGTCAGATGTGTATAAGAGACAGTTTTTTTTTTTTTTTTTTTTTTTTT…TC
# Conditions: aptamer strand: ATP DNA aptamer (quencher-CACCTGGGGGAGTATTGCGGAGGAAGG + anchor), 100 nM annealed; ATP concentration: 500 uM
# How it was run: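 Values give the fluorescence ratio for each switch-domain sequence, averaged from per-cluster ratios of summed target-cycle to summed buffer-cycle Cy3 intensity. The Cy3-labelled switching-strand clusters sat on a modified Illumina MiSeq flow-cell, were annealed to 100 nM quencher-labelled ATP aptamer, and were imaged in selection buffer, then after 15 min with 500 uM ATP at 22 °C. Five cycles ran with NaOH stripping and re-annealing between them, and clusters outside 100-1000 RFU were excluded.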
# 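Note: ATP exposure 15 min at 22 °C before imaging.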
row,Sequence,switch fluorescence ratio
1,TAGCCCCCAG,1.6 ± 0.78
2,TAGCCCGTGG,1.02 ± 0.027
3,TAGCCGGGGA,1.01 ± 0.032
4,TAGCCGTCTA,1.058 ± 0.0034
5,TAGCGAATAG,1.19 ± 0.043
6,TAGCGCATGG,1.08 ± 0.046
7,TAGCGGGGGA,1.04 ± 0.019
8,TAGCGGGGTT,0.9757 ± 0.0054
9,TAGCGTATGA,1.03 ± 0.014
10,TAGCTAATTT,0.979 ± 0.027
11,TAGCTACTTC,1.73 ± 0.93
12,TAGCTATGTG,0.982 ± 0.038
13,TAGCTCCGGG,1.055 ± 0.0063
14,TAGCTCGGGA,0.9742 ± 0.0097
15,TAGCTCGGTG,1 ± 0.042
16,TAGCTGAGTT,0.984 ± 0.014
17,TAGCTGGAGG,0.998 ± 0.035
18,TAGCTGGATG,0.98618 ± 0.00039
19,TAGCTGGCAC,1.02 ± 0.0034
20,TAGCTGTTAT,0.997 ± 0.03
21,TAGCTGTTTT,1.02 ± 0.02
22,TAGCTTGTTG,1.02 ± 0.025
23,TAGCTTTTTA,1 ± 0.026
24,TAGGAAATTT,1.03 ± 0.087
25,TAGGAAGGCA,0.967 ± 0.0024

row,Sequence,switch fluorescence ratio
1,TAGGACACGT,1.03 ± 0.012
2,TAGGACAGCG,0.969 ± 0.078
3,TAGGAGCTTG,1 ± 0.042
4,TAGGAGGGT,1.033 ± 0.0037
5,TAGGAGGGTT,0.987 ± 0.026
6,TAGGAGTTGT,0.995 ± 0.016
7,TAGGATGCAC,1.014 ± 0.0033
8,TAGGATTAAT,0.999 ± 0.012
9,TAGGCCAGTT,0.996 ± 0.011
10,TAGGCCGCTG,1.07 ± 0.15
11,TAGGCGCTAG,0.999 ± 0.011
12,TAGGCGTGTC,0.992 ± 0.016
13,TAGGCTTGAA,1.03 ± 0.028
14,TAGGGAAGGG,0.976 ± 0.032
15,TAGGGAATCA,0.97 ± 0.014
16,TAGGGACTAG,1.02 ± 0.015
17,TAGGGACTAT,1.02 ± 0.018
18,TAGGGAGAGT,1.01 ± 0.022
19,TAGGGAGCCT,0.964 ± 0.016
20,TAGGGAGGCT,0.992 ± 0.038
21,TAGGGATGGG,1.02 ± 0.019
22,TAGGGCAGGG,1 ± 0.0022
23,TAGGGCGAGG,0.9899 ± 0.001
24,TAGGGCGCAG,0.959 ± 0.028
25,TAGGGCGGAG,0.957 ± 0.025

row,Sequence,switch fluorescence ratio
1,TAGGGCGGGT,0.972 ± 0.039
2,TAGGGCTGTG,0.995 ± 0.059
3,TAGGGGAAAG,0.99 ± 0.052
4,TAGGGGAGCT,0.974 ± 0.067
5,TAGGGGATTG,1 ± 0.02
6,TAGGGGCAGC,1.01 ± 0.0054
7,TAGGGGCGAG,0.989 ± 0.048
8,TAGGGGCGAT,1.01 ± 0.032
9,TAGGGGCTCG,0.999 ± 0.032
10,TAGGGGCTG,1.01 ± 0.015
11,TAGGGGGAGC,1.01 ± 0.062
12,TAGGGGGGCT,0.968 ± 0.045
13,TAGGGGGTAG,1.01 ± 0.036
14,TAGGGGGTGG,1 ± 0.03
15,TAGGGGGTGT,0.991 ± 0.018
16,TAGGGGTACA,1.03 ± 0.016
17,TAGGGGTTGC,1.1 ± 0.11
18,TAGGGTAGGT,0.974 ± 0.0049
19,TAGGGTATGA,1.01 ± 0.02
20,TAGGGTGCTG,1.09 ± 0.16
21,TAGGGTTAAG,0.9994 ± 0.004
22,TAGGGTTGCA,1 ± 0.057
23,TAGGGTTTTC,0.988 ± 0.045
24,TAGGTAAAGT,0.981 ± 0.03
25,TAGGTAGGCA,1 ± 0.028

row,Sequence,switch fluorescence ratio
1,TAGGTAGGCT,0.974 ± 0.025
2,TAGGTAGGGG,0.99 ± 0.036
3,TAGGTAGTTT,0.969 ± 0.032
4,TAGGTCAGGG,0.965 ± 0.027
5,TAGGTCGATA,1 ± 0.023
6,TAGGTCGTTT,0.982 ± 0.01
7,TAGGTCTCAG,1.029 ± 0.0085
8,TAGGTCTGCG,0.978 ± 0.014
9,TAGGTGAAGG,1 ± 0.0069
10,TAGGTGACAA,1 ± 0.015
11,TAGGTGATTT,1.03 ± 0.023
12,TAGGTGGCGT,1.006 ± 0.0028
13,TAGGTGGCTC,1.03 ± 0.069
14,TAGGTGTTAT,1.02 ± 0.037
15,TAGGTTGTGC,0.976 ± 0.037
16,TAGGTTGTTG,0.969 ± 0.011
17,TAGGTTTAGT,0.9841 ± 0.0094
18,TAGGTTTTTT,0.989 ± 0.035
19,TAGTAAAGAT,1 ± 0.017
20,TAGTAAAGGT,1.022 ± 0.0068
21,TAGTAACTAC,1.05 ± 0.011
22,TAGTAATCGT,1.01 ± 0.063
23,TAGTAATTGA,1 ± 0.02
24,TAGTACCGGT,0.991 ± 0.029
25,TAGTACGGGC,1 ± 0.044

row,Sequence,switch fluorescence ratio
1,TAGTACTCGT,1.01 ± 0.011
2,TAGTAGTCAA,1.03 ± 0.011
3,TAGTAGTTGC,1.032 ± 0.0059
4,TAGTAGTTTT,1.01 ± 0.052
5,TAGTATATTT,0.954 ± 0.018
6,TAGTCATTCA,0.981 ± 0.026
7,TAGTCCATCG,0.998 ± 0.012
8,TAGTCCTATG,0.969 ± 0.021
9,TAGTCGCGTC,1.004 ± 0.0066
10,TAGTCGGGGA,1.03 ± 0.059
11,TAGTCGGTGG,0.9978 ± 0.0032
12,TAGTCTGCGT,1.04 ± 0.037
13,TAGTCTGGGC,0.986 ± 0.037
14,TAGTGACTAG,1.05 ± 0.021
15,TAGTGAGTCC,1.08 ± 0.1
16,TAGTGCGGGA,1.02 ± 0.073
17,TAGTGGGGCC,1.01 ± 0.019
18,TAGTGGGGGG,0.989 ± 0.026
19,TAGTGGTTCG,1.02 ± 0.023
20,TAGTGTGGGG,1.04 ± 0.034
21,TAGTGTGTTT,0.9823 ± 0.0095
22,TAGTGTTGTG,0.971 ± 0.055
23,TAGTTAGGGT,0.9959 ± 0.0093
24,TAGTTAGTGA,0.986 ± 0.034
25,TAGTTATGGT,1.04 ± 0.019

row,Sequence,switch fluorescence ratio
1,TAGTTATTAG,1 ± 0.04
2,TAGTTATTGA,1.01 ± 0.038
3,TAGTTCTTAA,0.984 ± 0.064
4,TAGTTGGGCG,0.984 ± 0.098
5,TAGTTGTAGG,1.04 ± 0.051
6,TAGTTGTCCC,1.02 ± 0.045
7,TAGTTGTTTG,0.9989 ± 0.0085
8,TAGTTTAGTT,1 ± 0.015
9,TAGTTTCTAC,0.992 ± 0.033
10,TAGTTTGAAC,1.01 ± 0.05
11,TAGTTTGGGC,0.983 ± 0.019
12,TAGTTTTGGG,0.9807 ± 0.0026
13,TAGTTTTTAT,1.02 ± 0.014
14,TATAAACAGG,0.998 ± 0.023
15,TATAAACGGG,1 ± 0.024
16,TATAAACTTT,1.01 ± 0.054
17,TATAAATTAG,0.972 ± 0.026
18,TATAACCAGG,1.33 ± 0.086
19,TATAAGAGAG,1 ± 0.024
20,TATAAGTATA,1.02 ± 0.011
21,TATAAGTGAG,1.02 ± 0.037
22,TATAATCATT,0.985 ± 0.028
23,TATAATCGAG,1 ± 0.014
24,TATAATGCTC,1.01 ± 0.014
25,TATAATGGTG,0.976 ± 0.021

row,Sequence,switch fluorescence ratio
1,TATACAATGG,1.01 ± 0.024
2,TATACAGGGG,1.2 ± 0.024
3,TATACATGAG,1.03 ± 0.021
4,TATACGACTC,1.09 ± 0.068
5,TATACGTGGC,0.939 ± 0.03
6,TATACTATGG,1.01 ± 0.038
7,TATACTGGGA,0.995 ± 0.012
8,TATACTGGGG,1.03 ± 0.059
9,TATACTTTTT,1.01 ± 0.021
10,TATAGAAAGT,0.9981 ± 0.0066
11,TATAGAGGGA,0.988 ± 0.02
12,TATAGCCTCG,0.976 ± 0.017
13,TATAGGATT,0.986 ± 0.015
14,TATAGGCCGG,0.991 ± 0.02
15,TATAGGGAAT,0.98384 ± 3.5e-05
16,TATAGGGAGT,1.01 ± 0.014
17,TATAGGGCAT,1.01 ± 0.032
18,TATAGGGGGA,1.04 ± 0.024
19,TATAGGGGTC,0.968 ± 0.014
20,TATAGGGTTG,0.999 ± 0.033
21,TATAGTAACT,1.03 ± 0.041
22,TATAGTCATT,1.02 ± 0.022
23,TATAGTCGGG,0.98 ± 0.025
24,TATAGTGAGG,1.0603 ± 0.001
25,TATAGTGGGG,1.043 ± 0.0078

row,Sequence,switch fluorescence ratio
1,TATAGTGGGT,1.01 ± 0.067
2,TATAGTTTTG,0.996 ± 0.021
3,TATATAACGG,1.036 ± 0.01
4,TATATAGTCT,1.024 ± 0.0086
5,TATATATGAC,1.01 ± 0.022
6,TATATATGTA,1.01 ± 0.05
7,TATATATTTG,1.03 ± 0.029
8,TATATATTTT,1.01 ± 0.029
9,TATATGCTGT,0.98 ± 0.011
10,TATATGGCGA,0.995 ± 0.031
11,TATATTACGA,1.03 ± 0.013
12,TATATTATGC,1.02 ± 0.011
13,TATATTCTTT,1 ± 0.023
14,TATATTGCAT,1.01 ± 0.015
15,TATATTTACC,1.04 ± 0.044
16,TATATTTAGT,0.973 ± 0.028
17,TATCAAAAGA,1.03 ± 0.016
18,TATCAAATTA,1.03 ± 0.011
19,TATCAATTCG,0.997 ± 0.036
20,TATCACGCAT,1.36 ± 0.018
21,TATCAGACAG,1.011 ± 0.0095
22,TATCAGTAGG,0.981 ± 0.021
23,TATCCACATA,1.1 ± 0.013
24,TATCCAGGGG,2.063 ± 0.0021
25,TATCCAGTGG,1.01 ± 0.054

# Source: the supplement of paper PMC10126150
